Experiments:
[1] = target: the molecule itself; test: SPR; full-length DnaG (7.2 μg) immobilised on a GLC chip by amine coupling; soluble DnaG 0-17 μM, 60 μL/min; signal at equilibrium; profile did not follow a pure 1:1 fit; monomer to dimer
[2] = target: the molecule itself; test: SAXS; T7 primase at constant concentration (1 mg/ml in the methods, 50 μM in the legend) with increasing 4-mer RNA (5'-ACCC-3'), RNA:protein molar ratio 1 to 10, in the presence of ATP/CTP, RNA and Mg2+; 20 mM Tris-HCl pH 7.5, 1 mM DTT; 4 °C; Rg against theoretical monomer (24 Å) and dimer (27 Å)
[3] = target: the molecule itself; test: cross-linking; Fe(II)-catalysed cross-linking of T7 primase (15 μM) with 1 mM ATP, ferrous chloride, H2O2, ascorbic acid, room temperature 45 min; products analysed by Superdex 200 SEC, SDS-PAGE and MALDI-TOF

B1: M. tuberculosis DnaG primase, full-length (enzyme)
chain: MSGRISDRDIAAIREGARIEDVVGDYVQLRRAGADSLKGLCPFHNEKSPSFHVRPNHGHFHCFGCGEGGDVYAFIQKIEHVSFVEAVELLADRIGHTISYTGAATSVQRDRGSRSRLLAANAAAAAFYAQALQSDEAAPARQYLTERSFDAAAARKFGCGFAPSGWDSLTKHLQRKGFEFEELEAAGLSRQGRHGPMDRFHRRLLWPIRTSAGEVVGFGARRLFDDDAMEAKYVNTPETLLYKKSSVMFGIDLAKRDIAKGHQAVVVEGYTDVMAMHLAGVTTAVASCGTAFGGEHLAMLRRLMMDDSFFRGELIYVFDGDEAGRAAALKAFDGEQKLAGQSFVAVAPDGMDPCDLRLKCGDAALRDLVARRTPLFEFAIRAAIAEMDLDSAEGRVAALRRCVPMVGQIKDPTLRDEYARQLAGWVGWADVAQVIGRVRGEAKRTKHPRLGRLGSTTIARAAQRPTAGPPTELAVRPDPRDPTLWPQREALKSALQYPALAGPVFDALTVEGFTHPEYAAVRAAIDTAGGTSAGLSGAQWLDMVRQQTTSTVTSALISELGVEAIQVDDDKLPRYIAGVLARLQEVWLGRQIAEVKSKLQRMSPIEQGDEYHALFGDLVAMEAYRRSLLEQASGDDLTA
notes: DnaG primase, Mycobacterium tuberculosis, full length (the truncated form ends at amino acid 639); also called full DnaG; full-length DnaG
Protein B1 has a Kd [1] of 2000 ± 300 nM.

B2: primase domain of gene 4 protein (gp4) from bacteriophage T7 (residues 1–271) (domain or fragment, UniProt P03692 1-271, looked up)
chain: MDNSHDSDSVFLYHIPCDNCGSSDGNSLFSDGHTFCYVCEKWTAGNEDTKERASKRKPSGGKPMTYNVWNFGESNGRYSALTARGISKETCQKAGYWIAKVDGVMYQVADYRDQNGNIVSQKVRDKDKNFKTTGSHKSDALFGKHLWNGGKKIVVTEGEIDMLTVMELQDCKYPVVSLGHGASAAKKTCAANYEYFDQFEQIILMFDMDEAGRKAVEEAAQVLPAGKVRVAVLPCKDANECHLNGHDREIMEQVWNAGPWIPDGVVSALSL
notes: primase domain of gene 4 protein (gp4), bacteriophage T7, residues 1-271; For the NMR spectra the protein was 15N-labelled and deuterated; Monomer without cofactors, dimer with ATP/CTP, RNA and Mg2+; also called T7 primase; T7 DNA primase
In the case of B2, the “stoichiometry N” value [2] is reported as 2 and the “stoichiometry N” value [3] is reported as 3.

From paper PMC12278352, “Characterization of DnaB–DnaG Interaction in M. tuberculosis Using Small‐Angle X‐ray Scattering‐Based Dissociation Assay” (Chembiochem, 2025)
